Assay results as given in patent US20140178854A1.

What was measured:
[1] = biological target: gp70 env protein of amphotropic MLV (4070A envelope), on purified viral particles (amphotropic murine leukemia virus (4070A envelope)); experiment: ELISA on plate-bound MLV, dilution factor 6250, inter-assay mean of six experiments
[2] = biological target: gp70 env protein of amphotropic MLV (4070A envelope), on purified viral particles (amphotropic murine leukemia virus (4070A envelope)); experiment: ELISA on plate-bound MLV, dilution factor 156250, Exp074-DTV Plate 1
[3] = biological target: gp70 env protein of amphotropic MLV (4070A envelope), on purified viral particles (amphotropic murine leukemia virus (4070A envelope)); experiment: ELISA on plate-bound MLV, dilution factor 50, Exp125-Ana Plate 1
[4] = biological target: gp70 env protein of amphotropic MLV (4070A envelope), on purified viral particles (amphotropic murine leukemia virus (4070A envelope)); experiment: ELISA on plate-bound MLV, dilution factor 6250, Exp073-DTV Plate 2
[5] = biological target: gp70 env protein of amphotropic MLV (4070A envelope), on purified viral particles (amphotropic murine leukemia virus (4070A envelope)); experiment: ELISA on plate-bound MLV, dilution factor 250, Exp122-Ana Plate 1
[6] = biological target: gp70 env protein of amphotropic MLV (4070A envelope), on purified viral particles (amphotropic murine leukemia virus (4070A envelope)); experiment: ELISA on plate-bound MLV, dilution factor 10, Exp122-Ana Plate 2
[7] = biological target: gp70 env protein of amphotropic MLV (4070A envelope), on purified viral particles (amphotropic murine leukemia virus (4070A envelope)); experiment: ELISA on plate-bound MLV, dilution factor 50, Exp122-Ana Plate 1
[8] = biological target: gp70 env protein of amphotropic MLV (4070A envelope), on purified viral particles (amphotropic murine leukemia virus (4070A envelope)); experiment: ELISA on plate-bound MLV, dilution factor 31250, Exp074-DTV Plate 1
[9] = biological target: gp70 env protein of amphotropic MLV (4070A envelope), on purified viral particles (amphotropic murine leukemia virus (4070A envelope)); experiment: ELISA on plate-bound MLV, dilution factor 31250, Exp125-Ana Plate 1
[10] = biological target: gp70 env protein of amphotropic MLV (4070A envelope), on purified viral particles (amphotropic murine leukemia virus (4070A envelope)); experiment: ELISA on plate-bound MLV, dilution factor 31250, Exp122-Ana Plate 2
[11] = biological target: gp70 env protein of amphotropic MLV (4070A envelope), on purified viral particles (amphotropic murine leukemia virus (4070A envelope)); experiment: ELISA on plate-bound MLV, dilution factor 250, Exp121-Ana Plate 2
[12] = biological target: gp70 env protein of amphotropic MLV (4070A envelope), on purified viral particles (amphotropic murine leukemia virus (4070A envelope)); experiment: ELISA on plate-bound MLV, dilution factor 10, Exp122-Ana Plate 1
[13] = biological target: gp70 env protein of amphotropic MLV (4070A envelope), on purified viral particles (amphotropic murine leukemia virus (4070A envelope)); experiment: ELISA on plate-bound MLV, dilution factor 250, Exp072-DTV Plate 2
[14] = biological target: gp70 env protein of amphotropic MLV (4070A envelope), on purified viral particles (amphotropic murine leukemia virus (4070A envelope)); experiment: ELISA on plate-bound MLV, dilution factor 781250, Exp122-Ana Plate 2
[15] = biological target: gp70 env protein of amphotropic MLV (4070A envelope), on purified viral particles (amphotropic murine leukemia virus (4070A envelope)); experiment: ELISA on plate-bound MLV, dilution factor 1250, Exp074-DTV Plate 2
[16] = biological target: gp70 env protein of amphotropic MLV (4070A envelope), on purified viral particles (amphotropic murine leukemia virus (4070A envelope)); experiment: ELISA on plate-bound MLV, dilution factor 781250, Exp072-DTV Plate 1
[17] = biological target: gp70 env protein of amphotropic MLV (4070A envelope), on purified viral particles (amphotropic murine leukemia virus (4070A envelope)); experiment: ELISA on plate-bound MLV, dilution factor 50, Exp072-DTV Plate 1
[18] = biological target: gp70 env protein of amphotropic MLV (4070A envelope), on purified viral particles (amphotropic murine leukemia virus (4070A envelope)); experiment: ELISA on plate-bound MLV, dilution factor 31250, Exp121-Ana Plate 2
[19] = biological target: gp70 env protein of amphotropic MLV (4070A envelope), on purified viral particles (amphotropic murine leukemia virus (4070A envelope)); experiment: ELISA on plate-bound MLV, dilution factor 156250, Exp121-Ana Plate 2
[20] = biological target: gp70 env protein of amphotropic MLV (4070A envelope), on purified viral particles (amphotropic murine leukemia virus (4070A envelope)); experiment: ELISA on plate-bound MLV, dilution factor 1250, Exp122-Ana Plate 1
[21] = biological target: gp70 env protein of amphotropic MLV (4070A envelope), on purified viral particles (amphotropic murine leukemia virus (4070A envelope)); experiment: ELISA on plate-bound MLV, dilution factor 31250, Exp072-DTV Plate 2
[22] = biological target: gp70 env protein of amphotropic MLV (4070A envelope), on purified viral particles (amphotropic murine leukemia virus (4070A envelope)); experiment: ELISA on plate-bound MLV, dilution factor 10, Exp073-DTV Plate 1
[23] = biological target: gp70 env protein of amphotropic MLV (4070A envelope), on purified viral particles (amphotropic murine leukemia virus (4070A envelope)); experiment: ELISA on plate-bound MLV, dilution factor 1250, Exp121-Ana Plate 1
[24] = biological target: gp70 env protein of amphotropic MLV (4070A envelope), on purified viral particles (amphotropic murine leukemia virus (4070A envelope)); experiment: ELISA on plate-bound MLV, dilution factor 1250, Exp072-DTV Plate 1
[25] = biological target: gp70 env protein of amphotropic MLV (4070A envelope), on purified viral particles (amphotropic murine leukemia virus (4070A envelope)); experiment: ELISA on plate-bound MLV, dilution factor 250, Exp122-Ana Plate 2
[26] = biological target: gp70 env protein of amphotropic MLV (4070A envelope), on purified viral particles (amphotropic murine leukemia virus (4070A envelope)); experiment: ELISA on plate-bound MLV, dilution factor 6250, Exp122-Ana Plate 2

Chain of gp70 env protein of amphotropic MLV (4070A envelope), on purified viral particles (amphotropic murine leukemia virus (4070A envelope)) (P21995 whole entry): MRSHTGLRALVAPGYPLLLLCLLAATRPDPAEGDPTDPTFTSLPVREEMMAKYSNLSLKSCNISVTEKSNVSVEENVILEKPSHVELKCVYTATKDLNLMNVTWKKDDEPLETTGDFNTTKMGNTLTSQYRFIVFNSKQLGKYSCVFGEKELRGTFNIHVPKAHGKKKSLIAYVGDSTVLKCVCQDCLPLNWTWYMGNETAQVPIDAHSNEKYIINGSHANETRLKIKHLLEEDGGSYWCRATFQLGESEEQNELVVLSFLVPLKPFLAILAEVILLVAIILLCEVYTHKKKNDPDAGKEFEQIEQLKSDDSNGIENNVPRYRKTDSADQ

83A25 monoclonal antibody (rat IgG2a, anti-gp70)
Mean OD (inter-assay mean) [1]: 0.693 OD
Mean OD [2]: 0.145 OD
Mean OD [3]: 1.99 OD
Mean OD [4]: 0.773 OD
Mean OD [5]: 1.86 OD
Mean OD [6]: 2.18 OD
Mean OD [7]: 2.01 OD
Mean OD [8]: 0.253 OD
Mean OD [9]: 0.235 OD
Mean OD [10]: 0.271 OD
Mean OD [11]: 2.25 OD
Mean OD [12]: 2.17 OD
Mean OD [13]: 1.56 OD
Mean OD [14]: 0.141 OD
Mean OD [15]: 1.39 OD
Mean OD [16]: 0.087 OD
Mean OD [17]: 1.75 OD
Mean OD [18]: 0.276 OD
Mean OD [19]: 0.159 OD
Mean OD [20]: 1.48 OD
Mean OD [21]: 0.21 OD
Mean OD [22]: 2.43 OD
Mean OD [23]: 1.93 OD
Mean OD [24]: 1.3 OD
Mean OD [25]: 1.7 OD
Mean OD [26]: 0.643 OD
